Source: article PMC11503464, “Copper-61 is an advantageous alternative to gallium-68 for PET imaging of somatostatin receptor-expressing tumors: a head-to-head comparative preclinical study” (Frontiers in Nuclear Medicine, 2024)

How the values were obtained:
[1] = Stability of labeling solutions at room temperature by radio-HPLC; format: physicochemical; conditions: labeling solution stored at room temperature
Experimental: An aliquot of DOTA-TOC or NODAGA-TOC (3–6 nmol, 1 mg/ml in TraceSelect water) was diluted in 0.25–0.30 ml ammonium acetate (0.5 M, pH 8), followed by the addition of [^61Cu]CuCl2 (30–150 MBq). The reaction mixture was incubated for 15 min at 95°C (DOTA-TOC) or at room temperature (NODAGA-TOC). The pH of the reaction mixture was between 5 and 6. Quality control was performed on a Shimadzu 2020 HPLC system connected to a Berthold radio detector (Flow Star 513).

[2] = format: physicochemical; conditions: pH 7.4
Experimental: Briefly, the radiotracer (10 µl, 1 µM) was added to 1 ml of a 1:1 pre-saturated mixture of 1-octanol and phosphate-buffered saline (PBS pH 7.4). The solution was vortexed for 30 min and then centrifuged at 3,000 rpm to achieve phase separation. Aliquots of 0.1 ml from each phase were collected and measured in a γ-counter. The distribution coefficient was calculated as the average of the logarithmic values (n = 3) of the ratio between the radioactivity in the organic and PBS phases. [^68Ga]Ga-DOTA-TOC was used as a reference.

HEK-SST2 cells [3] = experiment: Cellular uptake and distribution on intact HEK-SST2 cells; format: cell-based, human; conditions: specific uptake, after 4 h at 37°C
Experimental: At the defined time points, the medium was removed, and the cells were washed twice with ice-cold PBS. The cells were then treated twice for 5 min with ice-cold glycine solution (0.05 M, pH 2.8) to detach the cell membrane-bound fraction (acid released). Afterward, the cells containing the internalized fraction were detached using NaOH 1 M at 37°C and collected for measurement. [^68Ga]Ga-DOTA-TOC was evaluated as a reference.

HEK-SST2 cells [4] = experiment: Efflux from HEK-SST2 cells; format: cell-based, human
Experimental: The efflux was studied after 1 h incubation of the cells with the radiotracer at 37°C and the removal of the unbound fraction and the cell membrane-bound fraction, as described above (acid-wash). The cells were then incubated with fresh medium at 37°C either alone or with a competitor (1,000-fold excess of DOTA-TOC, 2.5 µM/well) for 10, 20, 30, 45, 60, 90, 120, 150, 180, and 240 min. At each time point, the efflux (or retention) was measured after the removal of the medium without or with the competitor and replacement with fresh pre-warmed (37°C) medium alone or with the competitor. At the end of the experiment, the cells were detached using 1 M NaOH at 37°C and collected to determine the remaining cell-associated radiotracer.

HEK-SST2 xenografts [5] = experiment: PET/CT in vivo specificity (DOTA-TOC pre-injection) in HEK-SST2 xenografts; parameters: species or system mice; conditions: PET/CT 1 h p.i.
Experimental: The mice were anesthetized with 1.5% isoflurane and dynamic PET scans were acquired from 0 to 1 h post-injection (p.i.). The mice were euthanized by CO2 at 4 h p.i., their bladders were mechanically emptied, and static PET scans were acquired for 30 min. […] The PET images were acquired in list mode using a small-animal PET scanner (β-CUBE, Molecubes, Ghent, Belgium) with a spatial resolution of 0.85 mm and an axial field-of-view of 13 cm. All PET scans were decay corrected and reconstructed into a 192 × 192 × 384 matrix by an ordered subsets maximization expectation (OSEM) algorithm using 30 iterations, a voxel size of 400 µm × 400 µm × 400 µm, and15 min per frame. Computed tomography (CT) data was used to apply attenuation correction on the PET data. The CT was imaged supine, headfirst, using the nanoSPECT/CT™ scanner (Bioscan Inc.). Topograms and helical CT scans of the whole mouse were first acquired using the following parameters: x-ray tube current: 177 µA, x-ray tube voltage 45 kVp, 90 s, and 180 frames per rotation, pitch 1. […] The specificity of the ^61Cu-labeled tracers was assessed in HEK-SST2 xenografts by administering DOTA-TOC (100 µl/200 nmol) 2–5 min pre-injection, followed by the injection of the radiotracer (100 µl/200 pmol/4 MBq). […]

HEK-SST2 xenografts [6] = conditions: female, athymic nude-Foxn1^nu/Foxn1^+, mouse, in vivo, 200 pmol, 1 h

## C[C@@H](O)[C@@H]1NC(=O)[C@H](CCCCN)NC(=O)[C@@H](Cc2c[nH]c3ccccc23)NC(=O)[C@H](Cc2ccc(O)cc2)NC(=O)[C@@H](NC(=O)[C@@H](Cc2ccccc2)NC(=O)CN2CCN(CC(=O)O)CCN(CC(=O)O)CCN(CC(=O)O)CC2)CSSC[C@@H](C(=O)N[C@H](CO)[C@@H](C)O)NC1=O [[^61Cu]Cu-DOTA-TOC] [metal not drawn]
[1]; 2 h after end of synthesis
  Radiochemical purity (%) 2 h: 96 ± 1%
[1]; 4 h after end of synthesis
  Radiochemical purity (%) 4 h: 95 ± 1%
[2]
  log D(O/PBS pH 7.4): −2.81 ± 0.29
HEK-SST2 cells [3]
  Cellular uptake (surface bound + internalized): 78.3 ± 1.3%
HEK-SST2 cells [4]; after 2 h, 37°C, no further increase at 4 h
  Efflux plateau in the absence of a competitor: approximately 40%
HEK-SST2 cells [4]; after 4 h at 37°C, DOTA-TOC (competitor) added to the medium
  Efflux with competitor: 80%
HEK-SST2 xenografts [5]
  Abdominal uptake (liver and intestine) after high excess DOTA-TOC pre-injection: not suppressed
HEK-SST2 xenografts [6]
  Heart uptake: 0.63 ± 0.07 %IA/g
  Intestine uptake: 2.94 ± 0.15 %IA/g
  Liver uptake: 3.59 ± 0.49 %IA/g
